# From the supplement of paper PMC10567573
# B1: PCDHGA10 (parent)
# chain: FHELQMQVTASDSGDPPLSSNVSL
# Variants of: B1
# Assay: protein stability index of a GFP-peptide fusion (GPS, HEK-293T) (PSI 1-6); higher = more stable
# Settings: c terminus: a fixed tail appended
# 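Also: lentivirally expressed fusions sorted by FACS into six bins by GFP to DsRed ratio, PSI derived from sequencing read proportions per bin multiplied by bin number.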
row,Variant,protein stability index
1,FHELQMQVTASDSGDNPLSSNVSL [P16N],2.23
2,FHELQMQVTASDSGDYPLSSNVSL [P16Y],1.59
3,FHELQMQVTASDSGDDPLSSNVSL [P16D],2.49
4,FHELQMQVTASDSGDAPLSSNVSL [P16A],1.74
5,FHELQMQATASDSGDPPLSSNVSL [V8A],3.11
6,FHELQMQNTASDSGDPPLSSNVSL [V8N],3.72
7,FHELQMQDTASDSGDPPLSSNVSL [V8D],4.05
8,FHELQMQHTASDSGDPPLSSNVSL [V8H],2.7
9,FHELQMQPTASDSGDPPLSSNVSL [V8P],3.33
10,FHELQMQKTASDSGDPPLSSNVSL [V8K],3.06
11,FHELQMQTTASDSGDPPLSSNVSL [V8T],2.81
12,FHELQMQGTASDSGDPPLSSNVSL [V8G],3.3
13,FHELYMQVTASDSGDPPLSSNVSL [Q5Y],1.87
14,FHELRMQVTASDSGDPPLSSNVSL [Q5R],2.42
15,FHELNMQVTASDSGDPPLSSNVSL [Q5N],2.86
16,FHELHMQVTASDSGDPPLSSNVSL [Q5H],2.44
17,FHELEMQVTASDSGDPPLSSNVSL [Q5E],3.23
18,FHELVMQVTASDSGDPPLSSNVSL [Q5V],2.04
19,FHELKMQVTASDSGDPPLSSNVSL [Q5K],2.13
20,FHELPMQVTASDSGDPPLSSNVSL [Q5P],2.23
21,FHELQMQVTASFSGDPPLSSNVSL [D12F],2.47
22,FHELQMQVTASRSGDPPLSSNVSL [D12R],1.82
23,FHELQMQVTASLSGDPPLSSNVSL [D12L],1.73
24,FHELQMQVTASGSGDPPLSSNVSL [D12G],2.14

row,Variant,protein stability index
1,FHELQMQVTASHSGDPPLSSNVSL [D12H],1.88
2,FHELQMQVTASESGDPPLSSNVSL [D12E],2.23
3,FHELQMQVTASMSGDPPLSSNVSL [D12M],3
4,FHELQMQVTASQSGDPPLSSNVSL [D12Q],1.89
5,FHELQMQVTASDSGDPPHSSNVSL [L18H],3.04
6,FHELQMQVTASDSGDPPDSSNVSL [L18D],3.51
7,FHELQMQVTASDSGDPPYSSNVSL [L18Y],2.15
8,FHELQMQVTASDSGDPPFSSNVSL [L18F],2.56
9,FHELQMQVTASDSGDPPISSNVSL [L18I],2.33
10,FHELQMQVTASDSGDPPRSSNVSL [L18R],2.42
11,FHELQMQVTASDSGDPPWSSNVSL [L18W],2.3
12,FHELQMQVTASDSGDPPCSSNVSL [L18C],2.39
13,FHEGQMQVTASDSGDPPLSSNVSL [L4G],2.67
14,FHESQMQVTASDSGDPPLSSNVSL [L4S],3.46
15,FHENQMQVTASDSGDPPLSSNVSL [L4N],3.6
16,FHEAQMQVTASDSGDPPLSSNVSL [L4A],2.76
17,FHEMQMQVTASDSGDPPLSSNVSL [L4M],2.24
18,FHEQQMQVTASDSGDPPLSSNVSL [L4Q],3.36
19,FHERQMQVTASDSGDPPLSSNVSL [L4R],2.77
20,FHEEQMQVTASDSGDPPLSSNVSL [L4E],4.19
21,FHECQMQVTASDSGDPPLSSNVSL [L4C],2.73
22,FTELQMQVTASDSGDPPLSSNVSL [H2T],2.81
23,FDELQMQVTASDSGDPPLSSNVSL [H2D],4.49
24,FIELQMQVTASDSGDPPLSSNVSL [H2I],1.88

row,Variant,protein stability index
1,FMELQMQVTASDSGDPPLSSNVSL [H2M],2.81
2,FWELQMQVTASDSGDPPLSSNVSL [H2W],1.78
3,FVELQMQVTASDSGDPPLSSNVSL [H2V],1.92
4,FHELQMQVTASDSGDPKLSSNVSL [P17K],2.43
5,FHELQMQVTASDSGDPWLSSNVSL [P17W],1.48
6,FHELQMQVTASDSGDPYLSSNVSL [P17Y],1.52
7,FHELQMQVTASDSGDPELSSNVSL [P17E],2.28
8,FHELQMLVTASDSGDPPLSSNVSL [Q7L],1.89
9,FHELQMHVTASDSGDPPLSSNVSL [Q7H],2.09
10,FHELQMRVTASDSGDPPLSSNVSL [Q7R],1.99
11,FHELQMEVTASDSGDPPLSSNVSL [Q7E],2.54
12,FHELQMVVTASDSGDPPLSSNVSL [Q7V],1.82
13,FHELQMKVTASDSGDPPLSSNVSL [Q7K],1.67
14,FHELQMFVTASDSGDPPLSSNVSL [Q7F],2.66
15,FHELQMNVTASDSGDPPLSSNVSL [Q7N],2
16,FHELQMDVTASDSGDPPLSSNVSL [Q7D],3.06
17,PHELQMQVTASDSGDPPLSSNVSL [F1P],4.8
18,VHELQMQVTASDSGDPPLSSNVSL [F1V],4.11
19,GHELQMQVTASDSGDPPLSSNVSL [F1G],4.74
20,IHELQMQVTASDSGDPPLSSNVSL [F1I],3.74
21,NHELQMQVTASDSGDPPLSSNVSL [F1N],4.61
22,CHELQMQVTASDSGDPPLSSNVSL [F1C],3.83
23,YHELQMQVTASDSGDPPLSSNVSL [F1Y],2.78
24,LHELQMQVTASDSGDPPLSSNVSL [F1L],4.5

row,Variant,protein stability index
1,WHELQMQVTASDSGDPPLSSNVSL [F1W],3.81
2,FHELQMQVEASDSGDPPLSSNVSL [T9E],3.53
3,FHELQMQVMASDSGDPPLSSNVSL [T9M],2.18
4,FHELQMQVCASDSGDPPLSSNVSL [T9C],1.93
5,FHELQMQVVASDSGDPPLSSNVSL [T9V],2.12
6,FHELQMQVIASDSGDPPLSSNVSL [T9I],2.09
7,FHELQMQVSASDSGDPPLSSNVSL [T9S],2.16
8,FHELQMQVTASDSGDPPLSSNESL [V22E],3.24
9,FHELQMQVTASDSGDPPLSSNISL [V22I],1.85
10,FHELQMQVTASDSGDPPLSSNCSL [V22C],2.38
11,FHELQMQVTASDSGDPPLSSNNSL [V22N],2.77
12,FHELQMQVTASDSGDPPLSSNTSL [V22T],2.83
13,FHELQMQVTASDSGDPPLSSNDSL [V22D],3.4
14,FHELQMQVTASDSGDPPLSSNRSL [V22R],2.69
15,FHELQMQVTASDSGDPPLSSNLSL [V22L],2.71
16,FHELQMQVTASDSGDPPLSSNQSL [V22Q],2.43
17,FHELQMQVTASDSGDPPLISNVSL [S19I],1.66
18,FHELQMQVTASDSGDPPLTSNVSL [S19T],2.02
19,FHELQMQVTASDSGDPPLCSNVSL [S19C],1.93
20,FHELQMQVTASDSGDPPLFSNVSL [S19F],2.07
21,FHELQMQVTASDSGDPPLDSNVSL [S19D],3.07
22,FHELQMQVTASDSGDPPLKSNVSL [S19K],2.11
